Data reported in the supplement of paper PMC9942255.
Where “and” joins values, the source holds several entries; their conditions need not be identical. Identical values can stand only once.

System: Bacillus subtilis DB104 (SP-AmyQ fusion secretion)
Assay: AmyQ secretion efficiency, weighted average sort bin (1 = best secretion, 10 = worst) (bin number (weighted average, 1-10)); higher = lower secretion efficiency
How it was run: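 A B. subtilis DB104 library carrying amyE-integrated fusions of designed signal peptides to mature AmyQ was encapsulated at about 0.3 cells per ~65 nL alginate bead with fluorescein-starch and grown about 13 h at room temperature. Following nile red staining, occupied beads were flow-sorted as large particles into 10 equally populated bins by green/red fluorescence ratio, and the bin amplicons were Illumina-sequenced. The secretion score is the read-frequency-weighted average bin number normalised to beads per bin, leaving out low-abundance sequences.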

Row | Sequence | AmyQ secretion efficiency
1 | MMKKLFHSTLIVLLFFSFFGVQPLHAKKQ | 2.57
2 | MTKKAWFLPLVCVLLISGWLAPAASASRQTT | 1.94
3 | MIVLSTIITFNFIILLFISIIVFLSVIQPQPS | 5.66
4 | MLTKRGRYYYRTLLGLIAWFPGAAQAEEK | 9.36
5 | MKKQIITATTAVVLGSTGAASAQSI | 4.95
6 | MKSKGSIMACLILFSFTITTFINTETISAEED | 4.14
7 | MRSKKLWISLLFALTLIFTMAFSNMSAQRAGK | 6.17
8 | MRKKLKWLSTGTGGTYTQFLFKYQFSNNDS | 7.11
9 | MKKWMITIAMLILAGIALFVFISPTKSHKT | 7.06
10 | MKKWIYVVLVLSIAGIGGFSVHRASS | 6.42
11 | MKQRKRVSALTPSTTLAITAKAKEL | 7.26
12 | MKRLKVSLRVWMVFLMNWVTPDRKTAAAAVY | 6.85
13 | MFMQIITATTAVVLGSTLFAGAASAQSI | 3.83
14 | MLCVMMLLFSAIASFPVSAQAASR | 6.18
15 | MKSKGSIMACLILFSFTITTFINTETISFFSN | 6.76
16 | MKSRTIWTIILGALLVCCKKKKRTLTKSQAGASSS | 6.52
17 | MKMKSGMEQAVSVLLLLSRLPVQASLTSR | 6.52
18 | MKKRLIGFLVLVPALIMSGITLIECNKK | 6.67
19 | MKKTIMSFVAVAALSTGAHASAKEI | 2.46
20 | MKKTIMSFVAVAALSTTAFGAHCSAKEI | 2.42
21 | MKKIVSILFMFGLVMGFSSFFPSTVFAADK | 3.12
22 | MFNRLFRMSSFIVCFLAALIMAFTLPNSVYAQKP | 1.95
23 | MLKKKWMVGLLAGCLAAGGFSYNAFNTEN | 6.56
24 | MKKQIITATTAVVLGSTLFAGAMSAQSI | 1.54
25 | MRIFKKAVFVIMISFLIARRRKKRAHAAID | 8.88
26 | MKKRLIAPMLLSAASLAFFAMSGSAQQAAY | 8.53

Row | Sequence | AmyQ secretion efficiency
27 | MLCVMMLLFSAIASFPVSAQLKDQ | 6.33
28 | MTKYTVIASILLSFLSVLSGGHHESKAFPV | 6.55
29 | MKKRRLLAAGIIGLLTVSIASPSFAAEK | 2.29 and 2.73
30 | MRNLTKTSLLLAGLCTAAKKKFVTHASAEES | 8.31
31 | MGMKKKLSLGVASAALGLALVGGGWWAAFN | 7.18
32 | MRGKSAVLLSLIMLIAGFLISFVFQM | 6.98
33 | MTKKRRRAWFLPLVCVLLISGWLAPAASASAQTT | 2.33
34 | MKRLFMKASLVLFAVVFVFAVKGAPAKADEE | 2.81
35 | MIVIMSFNLIILLFISIIVFLSVIQPQPS | 6.9
36 | MKRIRIPMTLALGAALTIAPLSFASAAKR | 4.18
37 | MKLKSKLLLSCLALSTVFVATTIANLPTH | 6.34
38 | MNLRKILLSSALSLGMLEDDAPVLATSS | 2.76
39 | MRKKCSVCLWILVLLLSCKKRKKRAYAATS | 6.88
40 | MKRQGKSKSYAAVILSGWFIADHQTHSQEM | 7.16
41 | MKRTWNVCLTALLSVLLVAGSVRRRRKRKHAEAKKP | 8.2
42 | MTMLRKIIGWILLLCIIVSVAATITLIPLFAFTVIASGKEV | 4.26
43 | MKLSVKIAGVLTVAAAAMTAKMYATFTGTFAATAKGN | 7.49
44 | MKKWMILILAGIALFVFISPLKSHKT | 7.86
45 | MKKGIIRFLLVSFVLFFALSTGITGVQAARK | 2.85
46 | MKIRKILLSSALSFGMLISAVPALGAGT | 3.88
47 | MRIFKKARKKRRKSFLIATVNVNTAHAAID | 6.58
48 | MKKVLMAFIICLSLILSVLAAPPSGAKMESV | 4.39
49 | MKKWIYVKKKKKKAGIGGFSVHAASS | 6.75
50 | MKWMCSICCAAVLLAGTVFLLGAAQAEAV | 3.59
51 | MKKAAAVLLSLGLVFGFSYGAGHVAEAATD | 3.51
52 | MKKWMAGLFLAAAVLLCLMVPQQIQGKKK | 4.71

Row | Sequence | AmyQ secretion efficiency
53 | MKSKWMSRKLLVAVGFSFTQVMVHAGET | 6.44
54 | MRNLTKMMNTSLLLAGLCTAAQMVFVTHASAEES | 2.48
55 | MGLGKKLSVAVAASFMSLSISLPGIQAAEG | 1.56
56 | MKKGIIRFLLVSFVLFFALSSTGITGVQAAPA | 1.83
57 | MSNLCVMMLLFSAIASFPVSAQAKDQ | 3.93
58 | MIAYFGKCLLLVTIMFLGVLFGMHQANHG | 6.41
59 | MKKRLIAPMLLSAASLAFFAMSGSAQIAAY | 8.39
60 | MRKKCSTCQWRLVLLLSCLSGKSAYAATS | 5.76
61 | MLTKRLLTIYIMLLGLITWFPGAAQAEEK | 2.44
62 | MKKLLAAGIIGLLTVSIASPSFEAEK | 6.63
63 | MKLKKRVSMFKRRRTMCGGLFVTPAKAVKT | 6.84
64 | MKNMSCKLVVSVTLFFSFLTIGPLFHAQNS | 5.19
65 | MKKIVSILFMFGLVMGFSQFQPSTVFGADK | 4.23
66 | MKNMSCKLVVSVTLFFSFLTIGPLAHFQNS | 5.82
67 | MLTKRLRKKKRRLLGLIAWFPGAAQAEEK | 7.67
68 | MKKAAAVLLSLGLVFDKGYEPGHVAEAKTK | 2.85
69 | MKKWKQTQQSGIAAAISIFVYVSTGSEK | 7.55
70 | MTKKAWFLPLVCVLLISGWLAPAASASAQED | 2.97
71 | MLKRTSFVSSLFISSAVLLSILLPSGQTHAQSA | 1.61
72 | MKKRKRRNFKRFIAAFLVLALMIRRVPARVLAKST | 6.23
73 | MGLGKKLSVAVAASFMSLSISLPGSQAAEG | 2.3
74 | MKKAAAVLLSLGLVFGFSYGAGHVAEGKTK | 2.6
75 | MRHKIITFILAVVVIIIIGNMIGGGGGSEAEDD | 6.34
76 | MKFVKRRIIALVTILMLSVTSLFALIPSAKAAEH | 2.54
77 | MKRLLSTLLIGIMLLFFIFFTFAPSAFAKQD | 1.97
78 | MKKVLMAFIICLSLILSVLAAPPSGQKAESV | 7.08

Row | Sequence | AmyQ secretion efficiency
79 | MLFNTSFVSSLFISSAVLLSILLPSGQAHAQSA | 2.42
80 | MKRLLSSLAISALSLGLLVSAPTASFAAES | 2.75
81 | MKMKSGMEQAVSVLLLLSRLPVQASITSE | 7.01
82 | MRPVFPLILSAVLFLSCFFGARQTEFSASKR | 7.3
83 | MKRIRIPMTLALGAALTIAPLSFDSAEEN | 7.3
84 | MKQRRIMIFLTSFMLLAMTGQTALAKDV | 3.05
85 | MKQTRSKQSSFMLLAMTGQTALAKDV | 7.56
86 | MNKLKRLSMLTVMIASVFIFSSHCLAAQY | 2.86
87 | MTMLRKIIGWILLLCIIPLFAFTVIASLKEV | 3.47
88 | MKKWMAGLFLAAAVLLCLMVPQQGQGASS | 6.52
89 | MKKTIMSFVAVAALSTTAFGAHASWKEI | 6.56
90 | MFNRLFRVCFLAALIMAFTLPNSVYKQKP | 6.24
91 | MLKNRILALFVLSLGLLSFMVTPVSAASK | 1.67
92 | MLCVMMLLFSAIASFPVSAQRKDQ | 6.75
93 | MFKIMSAFVGMVLLTIFCFSPQASAAYD | 3.33
94 | MRKKLKWLSFLLGFIILLFLFKYQGSNNDS | 5.93
95 | MRKKRLLAGALTATVLFGTCAVDVPGIISPKTAEAASQ | 1.23
96 | MKRKQYSGRKLSIIVAYPIQTNASPM | 6.49
97 | MMIKQCVICLSLLVFGTTTAHAEET | 2.61
98 | MKTKTLFIFSAILTLSIFAPNECFAQTA | 2.92
99 | MKKLLAAGIIGLLTVSIASPIFAAEK | 1.99
100 | MKKAAAVLLSLGLVFGFSYGAGHVAEKKTK | 6.23
101 | MAIIIAIIAAVIVIAALITFNVRNPSPG | 7.75
102 | MGLGKKLSVAVAASFMSLSISLPGEQAAEG | 3.68
103 | MKKGIIRFLLVSFVLFFALSTGITGVQSAPA | 4.46
104 | MKLKKRVSMGLVALTMCGGLFVTPAKAVKT | 2.55

Row | Sequence | AmyQ secretion efficiency
105 | MKKQIITATTAVVLGSTLFAGAASTQSI | 2.06
106 | MKKTIMSFVAVAALSTTAFVAFTTSTLSGAHASAKEI | 4.48
107 | MKLWMRKTLVVLFTIVTFGLVSPPAAFMADKP | 2.2
108 | MPIKKKVMMCLAVTLVFGSMSFPTLTNWGGFKE | 7.59
109 | MFNRLFRVCFLAALIMAFTLPNSVYGQKP | 2.74
110 | MKRLCLWFTVFSLFLVLLPGKALGARR | 2.37
111 | MKTKTLFIFSAILTLSIFAPNETFARRR | 2.28
112 | MNKLKRLSMLTVMIASVFIFSSHSLAAQY | 2.4
113 | MKKVVLVLSIAGIGGFSVHAASS | 6.91
114 | MLKRTSFVSSQGQGSRTLLSILLPSGQAHAQSA | 7.6
115 | MKKWIYVVLVLSIAGIGGFSAFGPVTAVHAASS | 2.96
116 | MKLSVKIAGVLTVAAAAMTAKMYATDKGN | 5.75
117 | MKLKKRVSMFLVALTMCGGLFVRRRKRAKAVKT | 6.98
118 | MKLSVKIRRRKTVAAAAMTAKMYATAKGN | 7.97
119 | MKKIWIGMLAAAVLLLRKPKVSLADAA | 7.91
120 | MRSYIKVLTMCFLGLILFVPTTAPSPGFALADNS | 4.85
121 | MKKVLMAFIICLSLILSVLAAPPSGTKAESV | 2.94
122 | MTKRGIQAFAGGIILATAVLAAVFRLTTFDQAAAV | 5.37
123 | MKRKKIMIFLTSFMLLAMTGQTALAKDV | 3.1
124 | MRNRRKTSLLLAGLCTAAQMVFVTHASAEES | 3.33
125 | MNKKYFKRRKCKRFTSALFPTFSSVTAAQG | 6.71
126 | MMMWLIIAVSLAIAIVLFMYTKGEAKAAGM | 6.9
127 | MRKKKWRVGLLAGCLAAGGFSYNAFATEN | 5.68
